Target: mouse α4 integrin (mouse) (UniProt Q00651)
Assay: cell-based or functional assay

Chain of UniProt Q00651 (Q00651 41-1039, form in doubt, chain 1 of 2): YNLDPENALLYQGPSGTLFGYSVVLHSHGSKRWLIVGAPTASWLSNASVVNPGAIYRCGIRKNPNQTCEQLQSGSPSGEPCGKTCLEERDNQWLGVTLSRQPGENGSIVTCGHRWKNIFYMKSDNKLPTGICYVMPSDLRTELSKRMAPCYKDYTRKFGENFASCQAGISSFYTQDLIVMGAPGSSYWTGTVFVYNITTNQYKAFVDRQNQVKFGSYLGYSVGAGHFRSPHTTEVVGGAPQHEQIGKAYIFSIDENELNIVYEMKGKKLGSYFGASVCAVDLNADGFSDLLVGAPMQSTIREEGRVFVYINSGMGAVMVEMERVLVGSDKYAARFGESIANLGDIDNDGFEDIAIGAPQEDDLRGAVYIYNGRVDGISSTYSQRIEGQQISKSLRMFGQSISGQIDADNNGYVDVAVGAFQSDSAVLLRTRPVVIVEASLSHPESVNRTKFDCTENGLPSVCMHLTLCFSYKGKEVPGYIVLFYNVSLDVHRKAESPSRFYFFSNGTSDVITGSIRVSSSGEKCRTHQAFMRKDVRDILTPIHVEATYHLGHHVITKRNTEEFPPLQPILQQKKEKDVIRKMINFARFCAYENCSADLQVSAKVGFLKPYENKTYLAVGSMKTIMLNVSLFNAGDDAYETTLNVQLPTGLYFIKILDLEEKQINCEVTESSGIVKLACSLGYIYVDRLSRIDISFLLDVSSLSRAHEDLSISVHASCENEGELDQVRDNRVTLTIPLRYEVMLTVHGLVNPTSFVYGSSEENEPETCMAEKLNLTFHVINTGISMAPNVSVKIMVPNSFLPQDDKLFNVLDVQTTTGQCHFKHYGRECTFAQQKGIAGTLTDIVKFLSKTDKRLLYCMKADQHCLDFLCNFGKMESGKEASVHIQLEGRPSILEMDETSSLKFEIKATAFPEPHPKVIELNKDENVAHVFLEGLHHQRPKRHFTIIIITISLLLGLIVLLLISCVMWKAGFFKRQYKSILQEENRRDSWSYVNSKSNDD
Chain of UniProt Q00651 (chain, as listed by the source, form in doubt, chain 2 of 2): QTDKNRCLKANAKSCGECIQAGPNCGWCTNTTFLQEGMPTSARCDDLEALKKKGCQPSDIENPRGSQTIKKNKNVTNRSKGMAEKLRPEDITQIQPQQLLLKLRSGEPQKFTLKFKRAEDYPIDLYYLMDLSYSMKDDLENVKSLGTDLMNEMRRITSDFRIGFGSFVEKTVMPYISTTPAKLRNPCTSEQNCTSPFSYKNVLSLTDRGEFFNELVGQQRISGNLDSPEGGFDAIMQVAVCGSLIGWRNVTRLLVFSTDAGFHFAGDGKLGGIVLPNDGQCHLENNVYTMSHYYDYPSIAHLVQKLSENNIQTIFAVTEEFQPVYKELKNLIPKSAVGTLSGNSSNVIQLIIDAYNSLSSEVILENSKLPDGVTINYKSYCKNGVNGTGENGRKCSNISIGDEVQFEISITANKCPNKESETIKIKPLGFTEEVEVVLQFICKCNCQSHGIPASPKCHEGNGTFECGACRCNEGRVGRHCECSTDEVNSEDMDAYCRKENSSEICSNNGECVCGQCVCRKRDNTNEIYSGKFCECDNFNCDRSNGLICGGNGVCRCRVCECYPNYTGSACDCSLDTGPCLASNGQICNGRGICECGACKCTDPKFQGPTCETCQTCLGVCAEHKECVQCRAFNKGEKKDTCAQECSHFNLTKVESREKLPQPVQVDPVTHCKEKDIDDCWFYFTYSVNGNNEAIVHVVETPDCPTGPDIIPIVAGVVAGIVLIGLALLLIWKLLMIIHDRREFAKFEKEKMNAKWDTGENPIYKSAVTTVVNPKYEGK

Substance: anti-α4 integrin antibody (clone R1-2) (Pharmingen)
- inhibition of growth of B16-BL6 cells (Cell Counting Kit 8, O.D. 450), 10 µg/ml antibody: 20%
